What was measured:
[1] = molecular target: T1, His-tagged human IGF1R protein (ACRO Biosystems Inc., Cat #: IGR-H5229) (human, UniProt P08069 31-932); test: SPR (Biacore 8K) on captured hIGF1R-His, binder injected second (Analyte 2); competitor injected first (Analyte 1): Teprotumumab analog
T1 construct: Bought protein; also called hIGF1R-His; not shown: His tag
Procedure: (§1) Epitope binding assays were performed using Biacore™ 8K biosensor to determine whether two anti-IGF1R antibodies target the same or overlapping epitopes. 1×HBS-EP+ buffer (10 mM 4-(2-hydroxyethyl)-1-piperazineethanesulfonic acid (HEPES), 150 mM NaCl, 3 mM ethylenediaminetetraacetic acid (EDTA) and 0.05% P20, pH7.4) diluted from HBS-EP+buffer (10×) was used as the running buffer throughout the experiment. About 50 RU of hIGF1R-His was captured at a flow rate of 10 μL/min, and 200 nM of the tested antibody (Analyte 1) was injected at a flow rate of 30 uL/min to bind the ligand. Another comparison antibody (Analyte 2) was injected under the same conditions to determine whether the binding of different antibodies interfered with each other. The binding time was 180 s for each antibody.
(§2) The binding value of each antibody was obtained using Biacore Insight Evaluation (Version: 2.0.15.12933). To quantify the interference of one antibody binding to another, a binding ratio was calculated to compare each pair of antibodies. The binding ratio is defined as the binding value of the second antibody (Analyte 2) divided by the binding value of the first antibody (Analyte 1). The threshold to determine the block or non-block is 0.3.

[2] = molecular target: T2, human IGF1R (insulin-like growth factor 1 receptor) on cells (human, UniProt P08069 31-1367); test: cell-based or functional assay
[3] = molecular target: T2, human IGF1R (insulin-like growth factor …); test: flow cytometry on CHO-S-hIGF1R cells, antibody 20 µg/mL
Procedure: (§3) INSR (insulin receptor) and IGF1R are both members of the superfamily of receptor tyrosine kinases (RTKs). The binding activity of anti-IGF1R antibodies to human IGF1R, human INSR and monkey IGF1R was verified by flow cytometry. Briefly, CHO-S-hIGF1R cells (expressing human IGF1R (SEQ ID NO: 45), CHO-S-fasIGF1R cells (expressing cynomolgus monkey IGF1R (SEQ ID NO: 46) and CHO-S-hINSR (expressing SEQ ID NO: 47) were plated in a 96-well plate at a density of 2×10⁵ cells/well respectively. Purified anti-IGF1R antibody with a concentration of 20 μg/mL was added to each well and was incubated at 4° C. for 30 minutes. Then, after one wash with PBS, the cells were incubated with the secondary antibody Alexa Fluor® 647 anti-human IgG Fcγ (Jackson ImmunoResearch Laboratories, Inc., Cat #: 109-606-170) at 4° C. for 15 minutes before flow cytometry analysis. Human IgG1 was used as ISO control.

[4] = molecular target: T1, His-tagged human IGF1R protein (ACRO …); test: blocking ELISA on coated hIGF1R-His; blocked ligand: biotinylated human IGF-II
Procedure: Blocking assays were performed to determine whether the anti-IGF1R antibodies can block the binding between IGF1R and its ligand IGF-1 and IGF-2. Specifically, the microwell plates were coated with 100 μl/well of 5 μg/mL hIGF1R-His in pH 9.6 carbonate buffer, overnight at 4° C. Plates were blocked with at 200 μl/well of 1% bovine serum albumin and incubated at 37° C. for 2 hours. Serially diluted anti-IGF1R antibodies (0.005-10 μg/mL in 3-fold serial dilution plus buffer blank) were added to the plates at 100 μL/well. After a 1.5-hour incubation, Biotinylated Human IGF-I Protein (Acro Biosystems, Cat #: IG1-H82F7) or Biotinylated Human IGF-I Protein was replaced with Biotinylated Human IGF-II Protein (Acro Biosystems, Cat #: IG2-H82Q6) were added to the plates at 100 μL/well. After a 1.5-hour incubation at 37° C., HRP Streptavidin (Biolegend, Cat #: 405210) at 1:3000 dilution was added to the plates at 100 μL/well and incubated for 1 hour. Plates were washed 5 times and 100 μL of TMB was added to each well, and incubated for 10 minutes. 100 uL of 1M Phosphoric Acid was then added to each well and ELISA plates were read at 450/570 nm wavelength. A fitting curve was obtained using Log (antibody concentration (M)) as the X-axis and […] as the Y-axis.

[5] = molecular target: T2, human IGF1R (insulin-like growth factor …); test: cell-based or functional assay; remark: listed apart in the source
[6] = molecular target: T3, cynomolgus monkey IGF1R on cells (cynomolgus monkey, UniProt P08069 31-1367 (human entry)); test: flow cytometry on CHO-S-fasIGF1R cells, antibody 20 µg/mL
T3 construct: Expressed on CHO-S cells; also called fasIGF1R; CHO-S-fasIGF1R cells
Procedure: as §3

[7] = molecular target: T1, His-tagged human IGF1R protein (ACRO …); test: SPR (Biacore 8K) on captured hIGF1R-His, binder injected second (Analyte 2); competitor injected first (Analyte 1): 12D1
Procedure: as §1, §2

[8] = molecular target: T2, human IGF1R (insulin-like growth factor …); test: cell-based or functional assay; remark: listed apart in the source
[9] = molecular target: T2, human IGF1R (insulin-like growth factor …); test: cell-based or functional assay; remark: listed apart in the source
[10] = molecular target: T1, His-tagged human IGF1R protein (ACRO …); test: SPR (Biacore 8K) on captured hIGF1R-His, binder injected second (Analyte 2); competitor injected first (Analyte 1): 10D1
Procedure: as §1, §2

T2 sequence (P08069 31-1367 limits assumed): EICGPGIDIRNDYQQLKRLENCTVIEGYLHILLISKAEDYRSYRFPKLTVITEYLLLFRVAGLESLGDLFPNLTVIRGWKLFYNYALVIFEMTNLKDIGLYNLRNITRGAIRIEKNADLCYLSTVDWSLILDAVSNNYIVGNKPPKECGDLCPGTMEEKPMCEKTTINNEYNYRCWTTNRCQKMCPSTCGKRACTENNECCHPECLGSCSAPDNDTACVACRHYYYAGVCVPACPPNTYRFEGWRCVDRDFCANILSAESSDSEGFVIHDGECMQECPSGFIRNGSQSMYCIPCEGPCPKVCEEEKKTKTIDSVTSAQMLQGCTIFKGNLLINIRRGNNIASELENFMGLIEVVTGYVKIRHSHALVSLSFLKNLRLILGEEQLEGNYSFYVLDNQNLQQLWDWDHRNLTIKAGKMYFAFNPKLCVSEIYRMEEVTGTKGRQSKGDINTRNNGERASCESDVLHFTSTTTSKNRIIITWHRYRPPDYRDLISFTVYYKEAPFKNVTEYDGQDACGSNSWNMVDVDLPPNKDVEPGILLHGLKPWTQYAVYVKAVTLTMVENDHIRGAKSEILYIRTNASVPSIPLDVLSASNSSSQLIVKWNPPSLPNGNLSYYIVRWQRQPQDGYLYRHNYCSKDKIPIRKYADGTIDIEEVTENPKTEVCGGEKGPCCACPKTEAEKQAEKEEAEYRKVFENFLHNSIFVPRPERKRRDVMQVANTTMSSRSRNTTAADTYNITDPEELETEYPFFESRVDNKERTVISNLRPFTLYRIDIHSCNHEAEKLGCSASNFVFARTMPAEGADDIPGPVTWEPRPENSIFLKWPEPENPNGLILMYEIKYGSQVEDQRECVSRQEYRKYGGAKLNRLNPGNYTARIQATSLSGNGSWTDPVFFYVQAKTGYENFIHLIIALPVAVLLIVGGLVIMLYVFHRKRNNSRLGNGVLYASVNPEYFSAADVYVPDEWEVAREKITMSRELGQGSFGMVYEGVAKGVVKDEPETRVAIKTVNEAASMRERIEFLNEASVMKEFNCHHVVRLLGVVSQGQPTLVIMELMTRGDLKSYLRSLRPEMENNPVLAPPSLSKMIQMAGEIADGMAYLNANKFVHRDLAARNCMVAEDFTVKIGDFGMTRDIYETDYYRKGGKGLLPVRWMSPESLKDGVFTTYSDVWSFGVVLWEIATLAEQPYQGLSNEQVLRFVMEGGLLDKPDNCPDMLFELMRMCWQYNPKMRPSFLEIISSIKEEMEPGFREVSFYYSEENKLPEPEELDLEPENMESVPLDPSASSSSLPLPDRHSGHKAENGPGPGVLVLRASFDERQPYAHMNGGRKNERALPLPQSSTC
T3 sequence (P08069 other isoform, or with tags, fused parts or gaps limits assumed): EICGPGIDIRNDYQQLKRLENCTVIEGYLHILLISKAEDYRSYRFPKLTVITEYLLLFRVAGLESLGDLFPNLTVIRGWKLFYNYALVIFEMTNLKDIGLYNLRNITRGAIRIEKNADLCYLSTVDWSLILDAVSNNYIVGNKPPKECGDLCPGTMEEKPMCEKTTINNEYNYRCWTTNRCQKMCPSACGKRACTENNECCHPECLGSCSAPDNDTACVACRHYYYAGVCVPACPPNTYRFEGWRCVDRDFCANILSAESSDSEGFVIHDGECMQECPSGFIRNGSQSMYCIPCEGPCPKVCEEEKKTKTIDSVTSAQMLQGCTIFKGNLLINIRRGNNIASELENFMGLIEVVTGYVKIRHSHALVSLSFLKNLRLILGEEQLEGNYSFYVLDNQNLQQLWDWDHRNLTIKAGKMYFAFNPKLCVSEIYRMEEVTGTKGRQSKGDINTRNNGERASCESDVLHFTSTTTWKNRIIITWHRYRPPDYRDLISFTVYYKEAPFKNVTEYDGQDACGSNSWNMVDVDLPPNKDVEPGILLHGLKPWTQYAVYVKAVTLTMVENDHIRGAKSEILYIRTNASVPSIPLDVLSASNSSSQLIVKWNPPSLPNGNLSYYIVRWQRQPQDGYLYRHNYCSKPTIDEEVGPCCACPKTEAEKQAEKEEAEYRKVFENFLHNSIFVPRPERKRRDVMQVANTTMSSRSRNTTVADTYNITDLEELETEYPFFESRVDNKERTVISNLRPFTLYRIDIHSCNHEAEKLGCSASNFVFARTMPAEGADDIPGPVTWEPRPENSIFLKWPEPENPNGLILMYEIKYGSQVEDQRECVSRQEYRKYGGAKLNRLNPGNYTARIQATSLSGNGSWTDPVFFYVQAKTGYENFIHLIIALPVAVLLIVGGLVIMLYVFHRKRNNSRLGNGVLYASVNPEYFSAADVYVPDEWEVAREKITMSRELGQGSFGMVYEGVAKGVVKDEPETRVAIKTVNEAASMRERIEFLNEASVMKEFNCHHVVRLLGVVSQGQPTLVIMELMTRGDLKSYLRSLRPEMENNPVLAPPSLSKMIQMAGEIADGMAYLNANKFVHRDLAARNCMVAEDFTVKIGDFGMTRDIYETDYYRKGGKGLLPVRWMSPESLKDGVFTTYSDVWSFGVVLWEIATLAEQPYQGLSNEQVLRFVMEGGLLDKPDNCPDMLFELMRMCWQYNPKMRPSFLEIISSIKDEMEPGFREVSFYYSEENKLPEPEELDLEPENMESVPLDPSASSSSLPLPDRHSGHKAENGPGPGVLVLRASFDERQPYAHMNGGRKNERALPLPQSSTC
T1 sequence (P08069 31-932): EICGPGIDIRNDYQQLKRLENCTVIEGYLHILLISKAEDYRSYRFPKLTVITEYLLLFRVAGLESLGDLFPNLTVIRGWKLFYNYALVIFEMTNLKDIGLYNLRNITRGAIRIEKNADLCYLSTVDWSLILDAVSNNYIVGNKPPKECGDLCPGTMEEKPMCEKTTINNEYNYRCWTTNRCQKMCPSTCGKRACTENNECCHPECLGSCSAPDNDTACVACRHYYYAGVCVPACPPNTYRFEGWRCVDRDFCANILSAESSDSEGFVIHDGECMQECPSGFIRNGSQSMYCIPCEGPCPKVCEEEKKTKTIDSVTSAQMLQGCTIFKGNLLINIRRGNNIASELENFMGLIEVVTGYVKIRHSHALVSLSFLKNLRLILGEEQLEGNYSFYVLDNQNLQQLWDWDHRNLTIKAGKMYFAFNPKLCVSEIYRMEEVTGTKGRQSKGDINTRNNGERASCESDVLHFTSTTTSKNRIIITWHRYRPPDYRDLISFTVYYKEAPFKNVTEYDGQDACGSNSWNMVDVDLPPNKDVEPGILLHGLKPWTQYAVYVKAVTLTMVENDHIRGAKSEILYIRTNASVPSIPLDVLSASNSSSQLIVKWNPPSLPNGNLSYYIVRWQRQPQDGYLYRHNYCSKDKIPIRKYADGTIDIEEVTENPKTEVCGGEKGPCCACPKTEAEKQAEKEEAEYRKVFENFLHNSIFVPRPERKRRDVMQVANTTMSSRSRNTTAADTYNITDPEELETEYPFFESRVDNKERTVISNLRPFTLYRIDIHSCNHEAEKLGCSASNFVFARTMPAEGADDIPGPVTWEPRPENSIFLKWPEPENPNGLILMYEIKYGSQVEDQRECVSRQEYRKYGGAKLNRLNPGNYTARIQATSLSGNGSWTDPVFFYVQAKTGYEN

| Binder | binding ratio (Analyte 2 / Analyte 1) [1] | IC50 of inhibition of IGF-1-induced OPN secretion (U2OS-TSHR cells) [2] [nM] | Percentage of positive cells [3] [%] | IC50 [4] [nM] | Max inhibition (%) (10 µg/mL) [4] | EC50 of internalization (MFI of pHAb-labelled secondary Fab, NCI-H838 cells) [5] [nM] | Percentage of positive cells [6] [%] | binding ratio (Analyte 2 / Analyte 1) [7] | IC50 of inhibition of IGF-1-induced proliferation (NCI-H838 cells) [8] [nM] | Max inhibition (%) (10 µg/mL) of IGF-1-induced proliferation (NCI-H838 cells) [8] | IC50 of inhibition of IGF1R phosphorylation (CHO-S-hIGF1R cells, IGF-1 added, phosphotyrosine IGF1R ELISA) [9] [nM] | binding ratio (Analyte 2 / Analyte 1) [10] |
| --- | --- | --- | --- | --- | --- | --- | --- | --- | --- | --- | --- | --- |
| anti-IGF1R antibody 12A4 (antibody, V domains shown) VH: EVQLVQSGGGEIRPGGSLRLSCAASGFTFADYGMSWVRQAPGEGLEWVSEIDWTGGSKLYADSVKGRFTISRDNAKNSLFLQMNSLRAEDTALYYCVRDRGAVSPKYYYYGMDVWGQGTTVTVSS VL: EIVLTQSPSSLSASVGDRVTITCRASQGIRNDLGWYQQKPGKAPKRLIYAASRLQSGVPSRFSGSGSGTDFTLTISSLQPEDFATYYCLQHNSYPYTFGQGTKLEIK | 0.01 | 0.068 | 50.3 | 1.9 | 81 | 0.92 | 54.4 | -0.02 | 0.045 | 105 | 0.9 | -0.05 |
| anti-IGF1R antibody 10D1 (antibody, human IgG1, V domains shown) VH: QVQLQQSGGGVVRPGGSLRLSCAASGFTFADYGMSWVRQVPGKGLEWVSGINWNGGSTDYADSVKGRFTISRDNAKHSLYLQMNSLRAEDTAFYYCARDRGAVSRRYYYYGMDVWGLGTTVTVSS VL: AIQLTQSPSSLSASVGDRVTITCRASQDIRNDLGWYQLKPGKAPKRLIYAASRLQSGVPSGFSGSGSGTEFTLTISSLQPEDFATYYCLQHNSYPYTFGQGTKLEIK | 0.03 | 0.046 | 36.5 | 1.7 | 76 | 0.51 | 64.8 | 0.02 | 0.14 | 117 | 1.4 | -0.02 |
| anti-IGF1R antibody 10G1 (antibody, human IgG1, V domains shown) VH: QVQLVESGGGLVKPGGSLRLSCAASEFTFSDYYMSWIRQSPGKGLEWVSYISNSGSFTNYADSVKGRFTISRDNAKNSLYLQMNSLRAEDSAIYYCVRDQAPVTSKYYYYGMDVWGQGTTVTVSS VL: EIVLTQSPSSLSASVGDRVTITCRASQGIRNDFAWYQQKPGKAPKRLIYAASRLQRGVPSRFSGSGSGTEFTLTISSLQPEDFATYYCLQHNSYPYTFGQGTKLEIK | -0.03 | 0.13 | 46.4 | 5.2 | 73 | 1.12 | 73.9 | -0.02 | 0.091 | 88 | 1.2 | -0.04 |
| anti-IGF1R antibody 12D1 (antibody, human IgG1, V domains shown) VH: QVQLVESGGGVVRPGGSLRLSCAASGFTFDDYGMSWVRQVPGKGLEWVSGINWNGGSTDYADSVKGRFTISREKAKNSLYLQMNSLRAEDTALYYCVRDRGAVTRRYYYYGMDVWGQGTTVTVSS VL: DIQMTQSPSSLSASVGDRVTITCRASQDIRNDLGWYQLKPGKAPKRLIYAASRLQSGVPSRFSGSGSGTEFTLTISSLQPEDFATYYCLQHNSYPYTFGQGTKLEIK | 0.01 | 0.096 | 39.3 | 1.6 | 88 | 0.66 | 60.7 | -0.01 | 0.064 | 145 | 1.3 | -0.04 |

Reference: patent US20260258141A1 (BIOCYTOGEN PHARMACEUTICALS BEIJING, published 2026)
